Assay: label from the status in PepcDB records
In the case of “MILVSLVVVLFLVLLNGVFSMSELAVVSARKARLQGFAERGDRGAKLALEMSEHPTRFLSAVQVGITLIGIFAGAYGQATIAAALDAWLEASVPALAKYSEAIATTLVVIGLTYVSVILGELVPKRLALIFPDAIARRMAPFLAVVATVLRPFVTLLTVSTAAVLRLMGVRDERNTSVTSEEVEAVLAEGADAGLIEPEERSMIQEVLRLGDRPVRVAMTPRRDLFWVSLADDTETVLKEIRASAHSRIVVATEGDLDGDVGVLLKKDLLDACLSGEPLDLKAHVQQPLAIPETMSLLKALQLFKSTSLHMALVVDEFGSLQGAITPLDLLEMIAGDFPEDHDDDEKRIIRREDGGWLIDARLDIQELNDHLGENFEADGGYHTVAGLILDRLGRLPTEGEHVEIGGFDLEIVDMDGSRIDKVILKPSKRRKEGQEG”, the protein production was “failed”.
With “MILYVFLFFVGLLLLYLGAEGLIQGASSIALQYGIRPVILGLTVVALGTSMPEYLVNVFALISGESPLAIGNIIGSNISNVALILGACAVVLPLAVTPEVLRREYPVMLGVMVLFYLCALDGVIGARDGVLMVVLLSGLAAYVFYDAHRTTRGTVLESMEGELDAADPDLSTLAKAVYVIGGMGGLTLGAHLMVDNALAISDVLNIDHVVIGLTVVAIGTSLPELAASMVGTLKQEVDMTVGNVIGSNLLNVLFVVGTLAIAEPITVDPETIRLHFPVMLGFCALLVPLTWWDQKITRVEGAFMVIAFLGFMVFLYV” the protein production was “failed”.
For “MIMEHEYRLEVRGYELDSFGHVNNAVYLNYLEAARWDLCSKLNLTDYNESNELFIVVIETNIKYIRELKLFDKVLIKTELTYEDDYLIFKHNIYNEVTKRKASVAKSKMVLVSKQRIIYEIPQFIKDKLDICAYGLEHHHHHH”, the protein production was “failed”.
In the case of “MIMTSDIKLLDYLRVRRSTPALQLSEPGPSKGEIEEILRLAVRVPDHGKLAPWRFVVYRGEERVRLSEAALRIALEKNPDLDLQQQEAERTRFTRAPVVIAVISTAKPHFKIPEWEQVMSAGAVCLNVIFAANASGFAANWLTEWLAFDPAFLAEIGVSAEEKVAGYIHIGSTTFPPVERPRPELADVVTWVGDV”, the protein production was “not failed”.
With “MINDIILLLFVKIKRRLMMDKLFKLKENGTDVRTEVLAGLTTFFAMSYILFVNPQILSQTGMPAQGVFLATIIGAVAGTLMMAFYANLPYAQAPGMGLNAFFTFTVVFGLGYSWQEALAMVFICGIISLIITLTNVRKMIIESIPNALRSAISAGIGVFLAYVGIKNAGLLKFTIDPGNYTVVGEGADKAQATIAANSSAVPGLVSFNNPAVLVALAGLAITIFFVIKGIKGGIILSILTTTVLAIAVGLVDLSSIDFANNHVGAAFEDLKTIFGAALGSEGLGALVSDTARLPETLMAILAFSLTDIFDTIGTLIGTGEKVGIVATNGENHQSAKLDKALYSDLIGTTVGAIAGTSNVTTYVESAAGIGAGGRTGLTALVVAICFAISSFFSPLLAIVPTAATAPILIIVGIMMLGSLKNIHWDDMSEAVPAFFTSIFMGFSYSITQGIAVGFLTYTLTKLVKGQVKDVHVMIWILDALFILNYISMAL” the protein production was “failed”.
With “MINFFDLFLSDFLTSLRLFCKVWDEQTTLQALLEHVRAIPGHCQKKILTKLLVTDIWDKEDTKLLAALKHIDVRPTRVACRPSLQVLGLYNDVVTVFQTHGMGWYREIDEDVYPKLVKEFIATCRLTYANPENPKASQGTLTFFLNKKHYNKTMFEIYDMYGFTKGEAVEFSKLSPTHITSLLSTTNPVFEHNEQYLVPDPSKTVPRRRRTAEAQPTDEHVISNDEIYEDYAYPTSLAHAQPYLLLPEDPTPYRVSPPPAGDDISQQMAWMIALTRKNNSMMHKMWRAISRIRPCVCTRRGGVDDANRENQSKTIEDRHAERLVPAAGPSGASTSQPPPEHSQAVA” the protein production was “not failed”.
In the case of “MINHKIFPTADAVVKSLADDMLAYSQQGQPVHISLSGGSTPKMLFKLLASQPYANDIQWKNLHFWWGDERCVAPDDAESNYGEANALLFSKINMPAQNIHRILGENEPQAEAERFAQAMAHVIPTENGTPVFDWILLGVGADGHTASLFPGQTDYADANLSVVASHPESGQLRVSKTAKVLQAAKRISYLVLGAGKAEIVEQIHTTPAEQLPYPAAKIHSTSGVTEWYLDSDAAAKIA”, the protein production was “not failed”.
In the case of “MINKPNQFVNHLSALKKHFASYKELREAFNDYHKHNGDELTTFFLHQFDKVMELVKQKDFKTAQSRCEEELAAPYLPKPLVSFFQSLLQLVNHDLLEQQNAALASLPAAKIIELVLQDYPNKLNMIHYLLPKTKAFVKPHLLQRLQFVLTDSELLELKRFSFFQALNQIPGFQGEQVEYFNSKLKQKFTLTLGEFEIAQQPDAKAYFEQLITQIQQLFLKEPVNAEFANEIIDAFLVSYFPLHPPVPLAQLAAKIYEYVSQIVLNEAVNLKDELIKLIVHTLYEQLDRPVGDEN”, the protein production was “not failed”.
For “MINKTLLQKRFNGAAVSYDRYANVQKKMAHSLLSILKERYSETASIRILELGCGTGYVTEQLSKLFPKSHITAVDFAESMIAIAQTRQNVKNVTFHCEDIERLRLEESYDVIISNATFQWLNNLQQVLRNLFQHLSIDGILLFSTFGHETFQELHASFQRAKEERNIKNETSIGQRFYSKDQLLHICKIETGDVHVSETCYIESFTEVKEFLHSIRKVGATNSNEGSYCQSPSLFRAMLRIYERDFTGNEGIMATYHALFIHITKEGKR”, the protein production was “failed”.
In the case of “MINLWPLLLPAAAWSGWWLANRSNSNKDAHVHNRLSREYVVGLNYLLNEQSDKAVDVFIKLLEVDSDTVETHLALGSLFRRRGEVDRAIRIHQNLIARPQLSIQQRKEALMALGQDYMSAGVFDRAERIFLEVVELGGSRDTSSLQGLLAIYQQEKAWEKALDIIKKLEISTGASFHNQAAHYYCEMASQALKINAMDRAIYCIKQAMNVDPESVRASLMNATIEIKEGRYKQAIRSLKRVPQQDAEFLTEIIEPLVLCHKELDSMPDCIHYLEQTLEKHPRASVIFVIADYLRQNKGMDIAIDFVADNLSKHPSIRGLNRLIYWHLESAHGKVREKLQMLYDITSKFLDNKPIYRCGHCGFGGKHLHWHCPSCKQWGRMKPIHGLEGD”, the protein production was “failed”.
With “MINMYIPQFNPRIRKDQKSGLFFFEIRDNEGKTVSYQSGFNTKREAENTALEIQQKLRQGYTLDRYTSLYDWFQTWYDLKIRPKKKLSQETKKNYQIYGETLKRLFGDKPIIDIKSSQYQRIMNVYGETVGYDYLSRINSVIRKIIKLAQSDKIVIDDFTSTVELFAGKDGQKVNEKYIHSVEDYHRLISYLENNLNYEDSVVNHVIYVIAKTGMRYGEIIGLTNNDTSLDEHYLHTYKRYNTSTWKWTNAKNESSKRYIPIDDKIVAALSNMIKERERINSLLRIKNKEEFLFFHYGLEHGIPSVATVNKALKKILKKLDIEPIITTKGLRHTYGSYLLHNNIDMGVVARILGHKDIQMLIQVYGHTLTEKIDKEFKEVEQIMNRI” the protein production was “failed”.
With “MINSVITQMAEELRKASKVALFSHVSPDGDCIGSMLGIGLALEALGKEVAMFNPDPIPRNLSFLPGVDKITQSMPDPLPETLLFVDCADLQRVQLQREDLPADAVILNLDHHISNQNFGRINWVDSQAAASGELAYALVRRLNVELTQEIAANFYTALLTDTGSFKYANTTAKTHQIAGELMETGISLGDIHHFVFDQTPMVKLELLRRGLNQLQFFAEGQLGMMTLRKQDFEESGAEESLSEGLIDHARTVEGVEVAVLLKEVKPDVVRVSLRSNRWFDVNRIADGFGGGGHQRAAGCTLHLSLEEAKQKVRQIIEEELKLGRSHLEHHHHHH” the protein production was “not failed”.
For “MIPPGAQTPCPAGTRGDEATQLRRFVASVPNRISIGAARGAAPLSALLGLLLLGGAWTLRDHPGPGHEAAALCLLAAAALLMCLACLQRNARSAPFLVLGQGRLRARSLSAPLDLLEVADLRLEDGVWFSAIVLELHGKALPAPSTRPLDPFAARAVSECRDGPRVRLLSPGWRLNGRNLSLLEAAEVIDLYLDIARAQARLRQLGEIPPSASSSLPTPRIFP”, the protein production was “failed”.
For “MIPPLQLSPLALVALLSLAAWAVVLLTRRRFWRCDQRLGQNTMAPGAAPAVVAVIPARDEAHTIGQTVRSLLNQSYPGRLVVVVVDDSSSDGTADAARAGAASVYDGPSRLIVVPGKPLEAGWSGKLWAVHQGLEVAAQAVPEARYVLLTDADIEHIPGNIARLVGKCERDGLVMASLMVKLRCESAWEHLLIPAFIFFFQKLYPFPLVNDPDRRVAGAAGGCILARRETLDAIGGVAAVRGALIDDCALAALLKEKGPIWLGLAGRTRSLRPNDELGDVWRMVARTAYVQLHHSPLRLIGAVIGMTLLYLVPPVSLIVGILSADFPAAVAGLVGWIGLAIIYRPTLHLYRRPPMAGLALPLAALLYTLMTIDSARRHYVGRGGEWKGRTYSGDASAGADPGPRSPAELAAHVEAITKASGTSFYGAMRILPRERRLAMYAIYAFCRVVDDIADGTAPEAEKRAELARWRDEIEALYARGGKGPEHPVARALDGPIRRFALPREDFLAVIEGMELDAGPRVRIRDITELEQYCDWVACAVGRLSNRIFGADPALSDDVARHTGLALQLTNILRDVVEDAERDRLYLPLSRLRAHGLKTTKDIDAVLVHPATAKVCAELASKAAAEFAEADRAQAACDRKTMRPAIIMKEVYRRIHAALMVRGWARLGEPVKVSRLTKLGIALRHGWL”, the protein production was “failed”.
For “MIPPSIRLTLRNLIVNTDPGTLLFLLGLPSFYLIVLGLMFQSIIPNVPFAGKDISYAQFLSPGVVAMQPFIAGSIGGSMLWSDRRWGMFEQLIVGPFHRIDYLLGIIYVSIIFSVGGAFLMFLVSYAITGFLVSYDINLLMIAVVLIVSSILFTSIFLVLSVFIRTIQTYNTVTMFVFFILDFASSAFYPINSRTPLGLRIVSYMNPLTYIVDAVRNMMFYKIGMQDYISLLIVVVLSGFFFLIALVSYGRARV”, the protein production was “failed”.
With “MIPPSYCFYYFIHSGGLLSLKIRCENFIRSIADLIRKAEIELPDDVVNALRKAESIEENQVAKSQLQAILKNIEIAKNHAVPMCQDTGIMIFFAELGTEFQPGFDLEAAVRDAVVLATREIPLRPNAVDPLNRNNSGNNTGSGIPDIHWKLVPGKQLKITVSPKGAGSENMSALRMFNPTEAGSIKNFVLETVINAGGMPCPPLTLGIGIGGSFDKAARLAKEALLEPLDAPMNELEQEVLEAVNALGIGCMGLGGSTTALAVHIKTAHCHTASLPVAINIQCWANRHASIVFGEEE” the protein production was “failed”.
For “MIPSSSPMESRHRLSFSNEKTSRRRFQRIEKGVKFNTLKLVLICIMLGALFTIYRFRYPPLQIPEIPTSFGLTTDPRYVATAEINWNHMSNLVEKHVFGRSEYQGIGLINLNDNEIDRFKEVTKSDCDHVALHLDYAAKNITWESLYPEWIDEVEEFEVPTCPSLPLIQIPGKPRIDLVIAKLPCDKSGKWSRDVARLHLQLAAARVAASSKGLHNVHVILVSDCFPIPNLFTGQELVARQGNIWLYKPNLHQLRQKLQLPVGSCELSVPLQAKDNFYSAGAKKEAYATILHSAQFYVCGAIAAAQSIRMSGSTRDLVILVDETISEYHKSGLVAAGWKIQMFQRIRNPNAVPNAYNEWNYSKFRLWQLTEYSKIIFIDADMLILRNIDFLFEFPEISATGNNATLFNSGLMVVEPSNSTFQLLMDNINEVVSYNGGDQGYLNEIFTWWHRIPKHMNFLKHFWEGDEPEIKKMKTSLFGADPPILYVLHYLGYNKPWLCFRDYDCNWNVDIFQEFASDEAHKTWWRVHDAMPENLHKFCLLRSKQKAQLEWDRRQAEKGNYKDGHWKIKIKDKRLKTCFEDFCFWESMLWHWGETNSTNNSSTTTTSSPPHKTALPSL”, the protein production was “failed”.
With “MIPYAFIILLVVFFSVFDFSNLNVFKKKILLFFLSFILILFVGTRFETGDDWGEYTKVFDKIPLVSDLWNDNGMFLLFRMEPGYILFNSVIKSFGGSINEVFLLSSIVVISLFFVFQKRYTLLPFLAVLLYMRYGYMQFNMMFVRQGIAISIFFYSLKYIEDKKIIKYLLINILSSLFHSSLLIVLPLYFVINRRYSNIFLCTVVFISVLLSFFDWMGAILSFFPPFIQSSLTSYTESDVWGGMTGKINIAVAEKFILLLMCLRLREKLEQKNISFNLVFNLFVLSIICYYAFFQTYVFQQRTVLIFQLSTIFIISQLFLFFSVKNRMMVLFILNLMVIYFFFRYINIGKDVYLPYRSWLI” the protein production was “failed”.
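Further: failed if final PepcDB status was selected cloned or expressed and not failed if soluble or beyond.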
